Values of other authors, collected in publication PMC7900953, “Location of a single histidine within peptide carriers increases mRNA delivery” (The Journal of Gene Medicine, 2020).
Where no end group is shown, it is not given here.

System: human cells
Details: cited from earlier work

H3k4b (KHHHKHHHKHHHKHHHK; also: four-branched lysine core)
Cytotoxicity to human cells: no observed cytotoxicity to human cells
